Reference: patent US20180072807A1 (UNIVERSITAT STUTTGART, published 2018)

Experiments:
mouse serum albumin = target: T1, mouse serum albumin (mouse, UniProt P07724 25-608); experiment: size exclusion chromatography after incubation with albumin
T1 construct: also called MSA

human serum albumin = target: T2, human serum albumin (human, UniProt P02768 25-609); experiment: as above
T2 construct: also called HSA

[1] = target: EGF receptor (EGFR, erbB1) (human, UniProt P00533 25-1210); experiment: cell-based or functional assay
[2] = target: T3, proapoptotic TRAIL receptor DR4 (TRAIL R1) (UniProt O00220 24-468, limits assumed); experiment: flow cytometry on EGFR low/negative HepG2 cells; detection with anti-TRAIL mAb
T3 construct: whole, on cells; Endogenous receptor on cell lines

Binder	binding result (mouse serum albumin)	binding result (human serum albumin)	apoptosis-inducing activity on EGFR-positive Huh-7 cells compared to scTRAIL (SEQ ID NO: 104) [1]	binding result [2]
dimeric EGFR-specific TRAIL fusion protein of SEQ ID NO: 125 with an albumin binding domain (ABD) between component B and components A (other) LEASDYKDDDDKGAEVQLVESGGGLVQPGGSLRLSCAASGFSLTNYGVHWVRQAPGKGLEWLGVIWSGGNTDYNTPFTSRFTISRDNSKNTLYLQMNSLRAEDTAVYYCARALTYYDYEFAYWGQGTTVTVSSGGGGSDIQLTQSPSFLSASVGDRVTITCRASQSIGTNIHWYQQKPGKAPKLLIKYASESISGVPSRFSGSGSGTEFTLTISSLQPEDFATYYCQQNNNWPTTFGAGTKLEIKRGGSQHDEAVDANSLAEAKVLANRELDKYGVSDYYKNLINNAKTVEGVKALIDEILAALPAAAGNGTSNGTSEFTRGTSEETISTVQEKQQNISPLVRERGPQRVAAHITGTRGRSNTLSSPNSKNEKALGRKINSWESSRSGHSFLSNLHLRNGELVIHEKGFYYIYSQTYFRFQEEIKENTKNDKQMVQYIYKYTSYPDPILLMKSARNSCWSKDAEYGLYSIYQGGIFELKENDRIFVSVTNEHLIDMDHEASFFGAFLVGGGGSGGGSTSEETISTVQEKQQNISPLVRERGPQRVAAHITGTRGRSNTLSSPNSKNEKALGRKINSWESSRSGHSFLSNLHLRNGELVIHEKGFYYIYSQTYFRFQEEIKENTKNDKQMVQYIYKYTSYPDPILLMKSARNSCWSKDAEYGLYSIYQGGIFELKENDRIFVSVTNEHLIDMDHEASFFGAFLVGGGGSGGGSTSEETISTVQEKQQNISPLVRERGPQRVAAHITGTRGRSNTLSSPNSKNEKALGRKINSWESSRSGHSFLSNLHLRNGELVIHEKGFYYIYSQTYFRFQEEIKENTKNDKQMVQYIYKYTSYPDPILLMKSARNSCWSKDAEYGLYSIYQGGIFELKENDRIFVSVTNEHLIDMDHEASFFGAFLVG	binds	binds	–	–
EGFR-specific TRAIL fusion protein of SEQ ID NO: 96 (FLAG tag, huC225 VH, (GGGGS)3 linker L, VL, linker X, scTRAIL) (other, also called VH-VL-scTRAIL) LEASDYKDDDDKGAEVQLVESGGGLVQPGGSLRLSCAASGFSLTNYGVHWVRQAPGKGLEWLGVIWSGGNTDYNTPFTSRFTISRDNSKNTLYLQMNSLRAEDTAVYYCARALTYYDYEFAYWGQGTTVTVSSGGGGSGGGGSGGGGSDIQLTQSPSFLSASVGDRVTITCRASQSIGTNIHWYQQKPGKAPKLLIKYASESISGVPSRFSGSGSGTEFTLTISSLQPEDFATYYCQQNNNWPTTFGAGTKLEIKRAAAEFTRGTSEETISTVQEKQQNISPLVRERGPQRVAAHITGTRGRSNTLSSPNSKNEKALGRKINSWESSRSGHSFLSNLHLRNGELVIHEKGFYYIYSQTYFRFQEEIKENTKNDKQMVQYIYKYTSYPDPILLMKSARNSCWSKDAEYGLYSIYQGGIFELKENDRIFVSVTNEHLIDMDHEASFFGAFLVGGGGSGGGSTSEETISTVQEKQQNISPLVRERGPQRVAAHITGTRGRSNTLSSPNSKNEKALGRKINSWESSRSGHSFLSNLHLRNGELVIHEKGFYYIYSQTYFRFQEEIKENTKNDKQMVQYIYKYTSYPDPILLMKSARNSCWSKDAEYGLYSIYQGGIFELKENDRIFVSVTNEHLIDMDHEASFFGAFLVGGGGSGGGSTSEETISTVQEKQQNISPLVRERGPQRVAAHITGTRGRSNTLSSPNSKNEKALGRKINSWESSRSGHSFLSNLHLRNGELVIHEKGFYYIYSQTYFRFQEEIKENTKNDKQMVQYIYKYTSYPDPILLMKSARNSCWSKDAEYGLYSIYQGGIFELKENDRIFVSVTNEHLIDMDHEASFFGAFLVG	–	–	10 fold	binds
EGFR-specific TRAIL fusion protein according to SEQ ID NO: 102 (FLAG tag, huC225 VH, GGGGS linker L, VL, linker X, scTRAIL) (other, Made in HEK293 cells; The FLAG tag was kept for purification; also called divalent TRAIL fusion protein; dimeric TRAIL fusion protein) LEASDYKDDDDKGAEVQLVESGGGLVQPGGSLRLSCAASGFSLTNYGVHWVRQAPGKGLEWLGVIWSGGNTDYNTPFTSRFTISRDNSKNTLYLQMNSLRAEDTAVYYCARALTYYDYEFAYWGQGTTVTVSSGGGGSDIQLTQSPSFLSASVGDRVTITCRASQSIGTNIHWYQQKPGKAPKLLIKYASESISGVPSRFSGSGSGTEFTLTISSLQPEDFATYYCQQNNNWPTTFGAGTKLEIKRAAAEFTRGTSEETISTVQEKQQNISPLVRERGPQRVAAHITGTRGRSNTLSSPNSKNEKALGRKINSWESSRSGHSFLSNLHLRNGELVIHEKGFYYIYSQTYFRFQEEIKENTKNDKQMVQYIYKYTSYPDPILLMKSARNSCWSKDAEYGLYSIYQGGIFELKENDRIFVSVTNEHLIDMDHEASFFGAFLVGGGGSGGGSTSEETISTVQEKQQNISPLVRERGPQRVAAHITGTRGRSNTLSSPNSKNEKALGRKINSWESSRSGHSFLSNLHLRNGELVIHEKGFYYIYSQTYFRFQEEIKENTKNDKQMVQYIYKYTSYPDPILLMKSARNSCWSKDAEYGLYSIYQGGIFELKENDRIFVSVTNEHLIDMDHEASFFGAFLVGGGGSGGGSTSEETISTVQEKQQNISPLVRERGPQRVAAHITGTRGRSNTLSSPNSKNEKALGRKINSWESSRSGHSFLSNLHLRNGELVIHEKGFYYIYSQTYFRFQEEIKENTKNDKQMVQYIYKYTSYPDPILLMKSARNSCWSKDAEYGLYSIYQGGIFELKENDRIFVSVTNEHLIDMDHEASFFGAFLVG	–	–	–	binds
dimeric EGFR-specific TRAIL fusion protein of SEQ ID NO: 126 with an albumin binding domain (ABD) at the C-terminus (other) LEASDYKDDDDKGAEVQLVESGGGLVQPGGSLRLSCAASGFSLTNYGVHWVRQAPGKGLEWLGVIWSGGNTDYNTPFTSRFTISRDNSKNTLYLQMNSLRAEDTAVYYCARALTYYDYEFAYWGQGTTVTVSSGGGGSDIQLTQSPSFLSASVGDRVTITCRASQSIGTNIHWYQQKPGKAPKLLIKYASESISGVPSRFSGSGSGTEFTLTISSLQPEDFATYYCQQNNNWPTTFGAGTKLEIKRAAAGNGTSNGTSEFTRGTSEETISTVQEKQQNISPLVRERGPQRVAAHITGTRGRSNTLSSPNSKNEKALGRKINSWESSRSGHSFLSNLHLRNGELVIHEKGFYYIYSQTYFRFQEEIKENTKNDKQMVQYIYKYTSYPDPILLMKSARNSCWSKDAEYGLYSIYQGGIFELKENDRIFVSVTNEHLIDMDHEASFFGAFLVGGGGSGGGSTSEETISTVQEKQQNISPLVRERGPQRVAAHITGTRGRSNTLSSPNSKNEKALGRKINSWESSRSGHSFLSNLHLRNGELVIHEKGFYYIYSQTYFRFQEEIKENTKNDKQMVQYIYKYTSYPDPILLMKSARNSCWSKDAEYGLYSIYQGGIFELKENDRIFVSVTNEHLIDMDHEASFFGAFLVGGGGSGGGSTSEETISTVQEKQQNISPLVRERGPQRVAAHITGTRGRSNTLSSPNSKNEKALGRKINSWESSRSGHSFLSNLHLRNGELVIHEKGFYYIYSQTYFRFQEEIKENTKNDKQMVQYIYKYTSYPDPILLMKSARNSCWSKDAEYGLYSIYQGGIFELKENDRIFVSVTNEHLIDMDHEASFFGAFLVGGGSGGQHDEAVDANSLAEAKVLANRELDKYGVSDYYKNLINNAKTVEGVKALIDEILAALP	binds	binds	–	–
